{"source": "paper PMC4326804", "key": {"[1]": {"target": "His6-tagged nucleocapsid (N) protein of tomato spotted wilt virus (TSWV) (tomato spotted wilt virus (Yunnan isolate))", "test": "cross-linking; 30 ug purified N protein with increasing glutaraldehyde, 37 °C for 5 min, quenched with Tris-HCl pH 7.5; 5-20% SDS-PAGE, Coomassie staining; self-association"}, "[2]": {"target": "free-tag TSWV N protein (tomato spotted wilt virus (Yunnan isolate))", "test": "native gel or EMSA; 4-16% discontinuous blue native PAGE at 4 °C, cathode buffer 100 mM histidine pH 8.0 with 0.002% Coomassie G-250; purified N protein without PEI treatment (carries E. coli RNA); self-association"}}, "note": "Where “and” joins values, the source holds several entries; their conditions need not be identical. Equal values may be shown once."}
{"substance": "His6-tagged nucleocapsid (N) protein of tomato spotted wilt virus (TSWV) (natural protein)", "values": [{"measurement": "stoichiometry N", "setting": "[1]", "result": "> 3 and 2 and 3"}]}
{"substance": "free-tag TSWV N protein (natural protein)", "values": [{"measurement": "stoichiometry N", "setting": "[2]", "result": "2 and 3 and 4"}]}
